Entries after “also recorded” stand apart in the source; their conditions may differ.
How the values were obtained:
[1] = Specific activity towards ABTS; type: biochemical; conditions: 25 mM succinate buffer pH 4.5, 25° C.
Description: The activity assay was carried out in accordance with the method developed by Niku-Paavola et al. (1988). The sample was diluted with 0.025 M succinate buffer, pH 4.5. […] The activity is expressed as nano katals.
(§1) Specific activities of the purified T. arenaria and C. thermophilum laccases were determined towards different laccase substrates.

[2] = Specific activity towards syringaldazine; type: biochemical; conditions: 25 mM MES buffer, pH 5.5
Description: as §1

Decolorization of dyes = assay: Decolorization of dyes; parameters: key to Decolorization of Remazol Brilliant blue, Time 30 min / Decolorization of Remazol Brilliant blue, Time 60 min: −: no visually detectable change; +: visually detectable fading of the colour; ++: considerable fading of the colour; +++: complete/almost complete decolorization; conditions: for Decolorization of Remazol Brilliant blue, Time 30 min / Decolorization of Remazol Brilliant blue, Time 60 min: dye 5 mg/50 ml, enzyme 100 nkat/50 ml, 50° C., pH 6; for decolorization of Remazol Brilliant Blue: in the presence of the mediator
Description: The recombinant laccases CtLcc1, TaLcc2 and TaLcc4, derived from Trichoderma strains (Example 7) were tested for their ability to decolorize different dyes in the presence of the methyl syringate mediator (Example 7) or without it. The experiments were carried out in 100 ml shake flasks containing 50 ml of dye dissolved in citrate phosphate buffer pH 6. Dye concentration 5 mg/50 ml was used. Enzyme was dosed 100 nkat per 50 ml and the mediator 5 mg per 50 ml. Control samples contained only dye solution. The shake flasks were incubated at 50° C. for 30, 60 and 120 minutes. Samples of 3.5 ml were taken in test tubes for visual evaluation.

B1: CtLcc1: Chaetomium thermophilum ALKO 4265 laccase, SEQ ID NO: 47, produced in Trichoderma reesei (protein)
chain: MKFLTYATALLGALTAVVGAIPTRSGTKKKYIRDGPGPCHTPSNRACWAPGFDINTDYEVNTPNTGVTRNYTLTLTEEDNWTGPDGVVKEKIMLVNGKTLGPTIEANWGDWIEVKVINNLLTNGTSIHWHGIHQKGSNLHDGANGVTECPIPPNGGQRTYRFRAQQYGTSWYHSHFSAQYGNGIVGPIVIHGPASLPYDIDLGPFPLTDYYYKSADELVRHTQNNGPPFSDNVLFNGTGVHPQTGHGQYAKVTLTPGKRHRLRIINMSTENHFQVSLVGHQFTVIAADMVPVHSYTTDSLFLAVGQRYDVTIDASQTPGNYWFNVTFGGGFACGGSFNPNPAAIFHYEGAPDALPTDPGVPPRDHNCLDTLDLVPVVPRNVQVNQFVKKPENTLPVELSLGGTPLFVWKVNGSAIDVDWGNPVLQYVMDRNTSYRQADNIVEVNGVNQWTYWLIENDPNGAFSLPHPMHLHGHDFLIVGRSPDVPPGSNQRYNFDPATDIYRLRGQNPTRRDVAMLPAGGWLLLAFLTDNPGAWLFHCHIAWHVSGGLSVDFLERPNDLRNSILQHDKDEFNRVCNEWRTYWPNSPHPKIDSGLKHRWVEESEWLVR
modifications: Chaetomium thermophilum ALKO4265; (1)..(607) Deduced amino acid sequence of Chaetomium thermophilum ALKO4265 CtLcc1
Q: With B1 as the molecule, how does the “Specific activity on ABTS” value [1] read?
A: Its value is 705 nkat/mg.

Q: And the “Specific activity on syringaldazin” value [2]?
A: The value was 400 nkat/mg.

Q: What about the “Decolorization of Remazol Brilliant blue, Time 30 min” value (“Decolorization … Time 30 min” for short) (Decolorization of dyes; mediator 0 mg/50 ml) of the same molecule?
A: Its value is “−”.

Q: What about the “Decolorization of Remazol Brilliant blue, Time 60 min” value (“Decolorization … Time 60 min” for short) (Decolorization of dyes; mediator 0 mg/50 ml) of the same molecule?
A: The value was “−”.

Q: And the “Decolorization … Time 30 min” value (Decolorization of dyes; mediator 5 mg/50 ml)?
A: The value was “++”.

Q: And the “Decolorization … Time 60 min” value (Decolorization of dyes; mediator 5 mg/50 ml)?
A: The value was “+++”.

Q: And the “decolorization of Remazol Brilliant Blue” value (Decolorization of dyes)?
A: The value was “very effectively; also recorded: to great extend or completely”.

B2: TaLcc2: Thielavia arenaria ALKO 4197 laccase, SEQ ID NO: 41, produced in Trichoderma reesei (protein)
chain: MLTETLKSRNMLQSILALLATALGSSAFAIPELPEVSLQPRQACENTATSRQCWGDLSIDTNYYEVLPSTGRPPQEYWLSVVEGPCAPDGYNRTCMTFNGTVPGPTLFADWGDELVIHVTNNMVNNGTAIHWHGIRMLNNTLNDGVPGVTQCAIAPGESMTYRFNVTQYGSTWYHSHFSLQYAEGLFGGMILRGPSTANWDEDLGVLFLQDWSHVEAFTRWHEAKAGFPPSLDGGLINGTNTFDCSTLSPTDPKCTGNGKKFETVFEPGKKYLIRLINVAIDGVFQFSIDGHSLTVIATDLVPIVPYTTDSVQITIGQRYDIIVEANATPGNYWMRADWVTACVTNDHPEHMTGIVRYDASSIDPPTSESNVTKTSSCLGEPNEKTIPHLSLDVTNIGGTNVEELSFDTTSGDYFQWTLNTSSLVLDWGNPTMARIFNGDAIFPTEYNVVAVNKTGTGPEWTVLVIQDQSNLPIAHPIHLHGHDFWVLAAEEGVFNGNISSFNTRNPARRDVATLPGRGYLAIAFQIDNPGTWLTHCHIAWHASQGLSLEFVESQSEIVTDEVSRGVFNDVCASWRAHDPLWEQEDSGI
modifications: Thielavia arenaria ALKO4197; (1)..(589) Deduced amino acid sequence of Thielavia arenaria ALKO4197 TaLacc2
Q: With B2 as the molecule, how does the “Specific activity on ABTS” value [1] read?
A: Its value is 360 nkat/mg.

Q: What about the “Specific activity on syringaldazin” value [2] of the same molecule?
A: Its value is 120 nkat/mg.

Q: And the “Decolorization … Time 30 min” value (Decolorization of dyes; Table 24, mediator 0 mg/50 ml)?
A: Its value is “−”.

Q: What about the “Decolorization … Time 60 min” value (Decolorization of dyes; Table 24, mediator 0 mg/50 ml) of the same molecule?
A: Its value is “−”.

Q: What about the “Decolorization … Time 30 min” value (Decolorization of dyes; Table 24, mediator 5 mg/50 ml) of the same molecule?
A: Its value is “++”.

Q: What about the “Decolorization … Time 60 min” value (Decolorization of dyes; Table 24, mediator 5 mg/50 ml) of the same molecule?
A: The value was “+++”.

Q: What about the “decolorization of Remazol Brilliant Blue” value (Decolorization of dyes) of the same molecule?
A: Its value is “very effectively; also recorded: to great extend or completely”.

Reference: US7732178B2, “Laccase enzymes and their uses” (AB Enzymes Oy, priority 2004, dated 2010)
